According to PMC5643538, “Direct visualization of critical hydrogen atoms in a pyridoxal 5′-phosphate enzyme” (Nature Communications, 2017):

Target: the molecule itself
Experiment: crystal structure; joint neutron (2.2 Å) and X-ray (2.0 Å) structure at room temperature, pH 7.5, crystal soaked with 300 mM alpha-methyl-DL-aspartate; homodimer in one asymmetric unit

B1: recombinant porcine cytosolic aspartate aminotransferase (enzyme)
chain: MAPPSVFAEVPQAQPVLVFKLIADFREDPDPRKVNLGVGAYRTDDCQPWVLPVVRKVEQRIANDSSLNHEYLPILGLAEFRTCASRLALGDDSPALQEKRVGGVQSLGGTGALRIGAEFLARWYNGTNNKDTPVYVSSPTWENHNGVFTTAGFKDIRSYRYWDTEKRGLDLQGFLSDLENAPEFSIFVLHACAHNPTGTDPTPEQWKQIASVMKRRFLFPFFDSAYQGFASGNLEKDAWAIRYFVSEGFELFCAQSFSKNFGLYNERVGNLTVVAKEPDSILRVLSQMEKIVRVTWSNPPAQGARIVARTLSDPELFHEWTGNVKTMADRILSMRSELRARLEALKTPGTWNHITDQIGMFSFTGLNPKQVEYLINEKHIYLLPSGRINMCGLTTKNLDYVATSIHEAVTKIQ
modifications: pyridoxal 5'-phosphate covalently linked to K258 (internal aldimine; chain B at pH 7.5, both chains at pH 4.0); in chain A at pH 7.5 PLP is linked to alpha-methylaspartate (external aldimine) and K258 is free; protein deuterated
notes: aspartate aminotransferase, cytosolic, pig; the construct and its tag are not described here; also called AAT; source: E. coli T7 Express LacIQ, deuterated (minimal medium with 100% D2O), purified (Ni-NTA)
  stoichiometry N: 2
